The text below walks through data of patent US7208171B2, “Injectable and bioadhesive polymeric hydrogels as well as related methods of enzymatic preparation” (Northwestern University, priority 2002, dated 2007).

Non-standard residues stand in square brackets, D forms with d. No end group written: not given here. Dopa = N[C@@H](Cc1ccc(O)c(O)c1)C(=O)O

Data set [1] has as its target T1, guinea pig liver transglutaminase (UniProt P08587).
T1 construct: Transglutaminase from guinea pig liver, Boc-L-Lys(Boc)-OH, and N-Boc-L-DOPA dicyclohexylammonium salt was purchased from Sigma Chemical Company; purchased Sigma Chemical Company (St. Louis, Mo.); host or cells: guinea pig liver (tissue-derived enzyme)
T1 sequence (P08587 1-690): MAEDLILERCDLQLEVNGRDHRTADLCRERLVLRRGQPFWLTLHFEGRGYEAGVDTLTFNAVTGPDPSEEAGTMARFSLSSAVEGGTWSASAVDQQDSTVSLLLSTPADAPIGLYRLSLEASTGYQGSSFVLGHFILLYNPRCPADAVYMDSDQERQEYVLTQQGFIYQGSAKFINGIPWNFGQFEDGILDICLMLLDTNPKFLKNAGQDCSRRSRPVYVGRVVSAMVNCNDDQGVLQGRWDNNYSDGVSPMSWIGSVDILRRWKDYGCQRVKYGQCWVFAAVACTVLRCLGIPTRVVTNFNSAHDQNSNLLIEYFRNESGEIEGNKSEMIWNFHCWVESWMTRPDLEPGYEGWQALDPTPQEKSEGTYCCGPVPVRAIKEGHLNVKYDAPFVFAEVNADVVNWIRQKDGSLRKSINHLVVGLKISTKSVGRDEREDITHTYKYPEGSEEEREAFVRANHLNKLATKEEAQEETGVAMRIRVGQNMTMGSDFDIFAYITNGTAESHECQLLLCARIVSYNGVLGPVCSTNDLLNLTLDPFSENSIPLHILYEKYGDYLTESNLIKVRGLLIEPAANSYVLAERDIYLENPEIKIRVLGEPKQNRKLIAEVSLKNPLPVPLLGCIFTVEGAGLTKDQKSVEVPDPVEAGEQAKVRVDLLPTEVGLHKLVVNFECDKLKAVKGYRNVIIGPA
Put plainly: Substrate specificity: TGase-catalysed cross-linking of peptide with dansyl labeled substrate, RP-HPLC. Conditions: peptide concentration 0.05–50 mM, enzyme 0.05 U/ml, reaction time 30 min. In kind it is biochemical. On the procedure: For acyl donor attention was focused on peptides containing two to about 5 contiguous glutaminyl (e.g., Gln residues), whereas for acyl acceptor a variety of residues were placed near or adjacent Lys. The peptides were assayed as TGase substrates by monitoring the rate of cross-linking reaction with a known dansyl labeled substrate. The use of fluorescently labeled compounds and RP-HPLC analysis with the aid of LC-ESI/MS, allowed for identification of products and comparison of the kinetic constants of the candidate peptides. The specificity (kcat/Km, app) values determined under identical experimental conditions reflect the relative specificity of the enzyme toward the substrates; peptides with higher specificities are better substrates for TGase enzyme, indicating the enzyme-catalyzed cross-linking reaction of that peptide will proceed more rapidly.
Substrate Specificity. […] All reaction products were characterized by LC-ESI/MS (Table 3) and quantitatively analyzed by RP-HPLC. Kinetic constants (Table 4a–b and FIG. 6) were calculated from two methods: fit of the initial rates versus substrate concentrations to the Michaelis-Menten equation using the SigmaPlot® 2000 program with Enzyme Kinetics Module (SPSS Inc., IL); and graphing of the kinetic data using the direct linear plot. […]

Data set [2] concerns the target T2, guinea pig liver transglutaminase (guinea pig, UniProt P08587 2-690).
T2 sequence (looked up): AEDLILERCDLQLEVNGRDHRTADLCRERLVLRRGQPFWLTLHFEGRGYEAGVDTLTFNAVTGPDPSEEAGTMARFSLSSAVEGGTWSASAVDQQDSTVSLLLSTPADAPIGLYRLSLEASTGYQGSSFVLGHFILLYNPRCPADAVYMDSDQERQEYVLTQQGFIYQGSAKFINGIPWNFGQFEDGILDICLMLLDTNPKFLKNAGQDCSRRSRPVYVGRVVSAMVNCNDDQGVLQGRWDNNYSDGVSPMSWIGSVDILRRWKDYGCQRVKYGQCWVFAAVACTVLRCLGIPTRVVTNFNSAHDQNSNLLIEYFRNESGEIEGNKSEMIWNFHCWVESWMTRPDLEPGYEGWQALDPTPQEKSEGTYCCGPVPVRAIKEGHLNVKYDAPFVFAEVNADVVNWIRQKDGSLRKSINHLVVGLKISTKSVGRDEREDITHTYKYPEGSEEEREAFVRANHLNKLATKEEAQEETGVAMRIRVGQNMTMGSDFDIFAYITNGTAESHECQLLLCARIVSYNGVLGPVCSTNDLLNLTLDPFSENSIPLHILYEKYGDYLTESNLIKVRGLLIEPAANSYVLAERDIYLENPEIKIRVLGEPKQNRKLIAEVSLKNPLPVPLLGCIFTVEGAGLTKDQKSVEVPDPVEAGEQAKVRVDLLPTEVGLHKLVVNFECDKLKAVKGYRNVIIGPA
Put plainly: cell-based or functional assay.

A further data set deals with T3, NH2-GQLKHLEQQEG-NH2.
T3 chain: GQLKHLEQQEG

A further data set deals with T4, DOPA-LKG-NH2.
T4 chain: XLKG

The target in a further data set is T5, Ac-LKG-NH2.
T5 chain: LKG

A further data set deals with T6, Ac-GQQQLG-NH2.
T6 chain: GQQQLG

In another data set the target is T7, DOPA-FKG-NH2.
T7 chain: XFKG

In the next data set the target is T8, DOPA-GQQQLG-NH2.
T8 chain: XGQQQLG

For a further data set, the target named is T9, Ac-KG-NH2.
T9 chain: KG

A further data set concerns the target T10, FKG-NH2.
T10 chain: FKG

Another data set addresses T11, LKG-NH2.
T11 chain: LKG

A further data set deals with T12, Ac-FKG-NH2.
T12 chain: FKG

In the case of “DOPA-Lys-Gly-NH2 ([Dopa]-Lys-Gly-NH2; N-terminus assumed; SMILES NCCCC[C@H](NC(=O)[C@@H](N)Cc1ccc(O)c(O)c1)C(=O)NCC(N)=O) [Peptide 4]”, the cross-linking product detection entry in [1] was “No cross-linking product was detected”.

In data set [2], DOPA-FKG-NH2 (peptide) gave a fold increase in specificity against Ac-FKG-NH2 of 2.4 fold and a fold increase in specificity against Ac-KG-NH2 of 100 fold.

In data set [2], DOPA-LKG-NH2 (peptide) gave a fold increase in specificity against Ac-KG-NH2 of 100 fold and a fold increase in specificity against Ac-LKG-NH2 of 2.4 fold.

B1: LKG-NH2 (peptide)
peptide: Leu-Lys-Gly-NH2
On to B1, for which the “fold increase in specificity against Ac-KG-NH2” value in data set [2] is about 5 fold.

B2: guinea pig liver transglutaminase (protein)
chain: AEDLILERCDLQLEVNGRDHRTADLCRERLVLRRGQPFWLTLHFEGRGYEAGVDTLTFNAVTGPDPSEEAGTMARFSLSSAVEGGTWSASAVDQQDSTVSLLLSTPADAPIGLYRLSLEASTGYQGSSFVLGHFILLYNPRCPADAVYMDSDQERQEYVLTQQGFIYQGSAKFINGIPWNFGQFEDGILDICLMLLDTNPKFLKNAGQDCSRRSRPVYVGRVVSAMVNCNDDQGVLQGRWDNNYSDGVSPMSWIGSVDILRRWKDYGCQRVKYGQCWVFAAVACTVLRCLGIPTRVVTNFNSAHDQNSNLLIEYFRNESGEIEGNKSEMIWNFHCWVESWMTRPDLEPGYEGWQALDPTPQEKSEGTYCCGPVPVRAIKEGHLNVKYDAPFVFAEVNADVVNWIRQKDGSLRKSINHLVVGLKISTKSVGRDEREDITHTYKYPEGSEEEREAFVRANHLNKLATKEEAQEETGVAMRIRVGQNMTMGSDFDIFAYITNGTAESHECQLLLCARIVSYNGVLGPVCSTNDLLNLTLDPFSENSIPLHILYEKYGDYLTESNLIKVRGLLIEPAANSYVLAERDIYLENPEIKIRVLGEPKQNRKLIAEVSLKNPLPVPLLGCIFTVEGAGLTKDQKSVEVPDPVEAGEQAKVRVDLLPTEVGLHKLVVNFECDKLKAVKGYRNVIIGPA
Turning to B2, the Km, app turned out to be 0.593 mM with NH2-GQLKHLEQQEG-NH2; 0.0195 mM with DOPA-LKG-NH2; 0.056 mM with Ac-LKG-NH2; 0.119 mM with Ac-GQQQLG-NH2; 0.017 mM with DOPA-FKG-NH2; 0.367 mM with DOPA-GQQQLG-NH2. For the same molecule, the Km, app is 0.872 mM with Ac-KG-NH2, 0.498 mM with FKG-NH2, 0.609 mM with LKG-NH2 and 0.0469 mM with Ac-FKG-NH2. Besides, the Vmax, app with NH2-GQLKHLEQQEG-NH2 is 12.5 mM/min; with DOPA-LKG-NH2 it was 1.28 µM/min; with Ac-LKG-NH2, 1.5 µM/min; with Ac-GQQQLG-NH2, 1.8 mM/min; with DOPA-FKG-NH2, 1.25 µM/min; in the data set with DOPA-GQQQLG-NH2, 7.8 mM/min. The Vmax, app with Ac-KG-NH2 was 1.02 µM/min; in the data set with FKG-NH2, 1.7 µM/min; in the data set with LKG-NH2, 1.64 µM/min; with Ac-FKG-NH2, 1.46 µM/min. Besides, the kcat with NH2-GQLKHLEQQEG-NH2 is 28.1 min⁻¹; with DOPA-LKG-NH2 it was 23 min⁻¹; in the data set with Ac-LKG-NH2, 27 min⁻¹; with Ac-GQQQLG-NH2 it was 4 min⁻¹; with DOPA-FKG-NH2, 22.5 min⁻¹; with DOPA-GQQQLG-NH2, 17.6 min⁻¹. For the same molecule, the turnover number (kcat) was determined as 9.2 min⁻¹ in the data set with Ac-KG-NH2, 30.6 min⁻¹ with FKG-NH2, 29.5 min⁻¹ with LKG-NH2 and 26.3 min⁻¹ with Ac-FKG-NH2. Further, the kcat/Km, app with NH2-GQLKHLEQQEG-NH2 came out at 47.3 min⁻¹ mM⁻¹; with DOPA-LKG-NH2 it was 1180 min⁻¹ mM⁻¹; with Ac-LKG-NH2, 482 min⁻¹ mM⁻¹; with Ac-GQQQLG-NH2 it was 34.1 min⁻¹ mM⁻¹; with DOPA-FKG-NH2, 1320 min⁻¹ mM⁻¹; in the data set with DOPA-GQQQLG-NH2, 47.9 min⁻¹ mM⁻¹. Besides, the kcat/Km, app with Ac-KG-NH2 came out at 10.6 min⁻¹ mM⁻¹; with FKG-NH2, 61.6 min⁻¹ mM⁻¹; with LKG-NH2, 48.4 min⁻¹ mM⁻¹; in the data set with Ac-FKG-NH2, 560 min⁻¹ mM⁻¹. Further, the “substrate properties (acyl donor)” value with NH2-GQLKHLEQQEG-NH2, with Ac-GQQQLG-NH2 and in the data set with DOPA-GQQQLG-NH2 was “all three designed Gln peptides exhibiting good substrate properties” in each case.

B3: Ac-FKG-NH2 (peptide)
peptide: Ac-Phe-Lys-Gly-NH2
Consider B3, for which the “fold increase in specificity against FKG-NH2” value in data set [2] was about 10 fold.

B4: Ac-LKG-NH2 (peptide)
peptide: Ac-Leu-Lys-Gly-NH2
For the molecule B4, the “fold increase in specificity against LKG-NH2” value in [2] is about 10 fold.

B5: FKG-NH2 (peptide)
peptide: Phe-Lys-Gly-NH2
As for B5, the “fold increase in specificity against Ac-KG-NH2” value in data set [2] was about 5 fold.
